Experimental data as given in patent publication US20230143604A1, “QW DOSING OF GIP RECEPTOR AGONIST PEPTIDE COMPOUNDS AND USES THEREOF” (TAKEDA PHARMACEUTICAL COMPANY LIMITED, priority 2020, published 2023).
Starred links: 1 amine or outer side, 2 acyl side, 3 side chain; linkers in the order of their positions; H or OH if unused. Non-standard residues stand in square brackets, D forms with d. Groups on a side chain read outwards from the residue. No end group written: not given here. *: point of attachment. C20 diacid = O=C(O)CCCCCCCCCCCCCCCCCCC(=O)*; C18 diacid = O=C(O)CCCCCCCCCCCCCCCCC(=O)*; C17 diacid = O=C(O)CCCCCCCCCCCCCCCC(=O)*; γGlu = O=C(O)[C@H](CCC(=O)[*:2])N[*:1]; NMeY = CN[C@@H](Cc1ccc(O)cc1)C(=O)O; AEEA = NCCOCCOCC(=O)O; Aib = CC(C)(N)C(=O)O

Tests used:
[1] = target: T1, full-length human GIPR with an N-terminal FLAG tag (human, UniProt P48546 22-466); experiment: cell-based or functional assay
T1 sequence (looked up): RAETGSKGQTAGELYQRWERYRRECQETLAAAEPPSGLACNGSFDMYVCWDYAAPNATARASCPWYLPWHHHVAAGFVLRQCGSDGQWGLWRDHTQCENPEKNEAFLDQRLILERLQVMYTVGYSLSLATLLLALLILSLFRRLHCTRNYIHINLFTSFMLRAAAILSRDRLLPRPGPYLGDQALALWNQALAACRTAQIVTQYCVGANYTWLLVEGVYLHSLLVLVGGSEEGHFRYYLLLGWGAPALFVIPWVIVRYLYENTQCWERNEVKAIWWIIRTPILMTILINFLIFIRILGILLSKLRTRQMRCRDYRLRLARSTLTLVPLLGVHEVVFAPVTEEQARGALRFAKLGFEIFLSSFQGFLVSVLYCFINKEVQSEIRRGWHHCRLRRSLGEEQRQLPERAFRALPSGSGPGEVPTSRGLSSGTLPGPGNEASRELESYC

[2] = target: full-length human GLP-1R with an N-terminal FLAG tag (human, UniProt P43220 24-463); experiment: cell-based or functional assay

Binder	Human GIPR cAMP EC50, HEK293T [1] [pM]	Human GLP1R cAMP EC50, HEK293T [2] [nM]
YXEGTFISDYSIAXDRXAQXDFVNWLLAQQG (N-methyl Tyr 1; Aib at 2,17,20; Lys(G5-C18 diacid) at 14; C-terminal OH) [Compound No. 82]	0.3	17.4
YXEGTFISDYSIAXDRXAQXDFVNWLLAQSPG (N-methyl Tyr 1; Aib at 2,17,20; Lys(G5-C18 diacid) at 14; C-terminal OH) [Compound No. 84]	0.2	58.9
[NMeY][Aib]EGTFISDYSI[Aib]LDR[Aib]AQ[Aib]K([2OEGgEgE-C18 diacid])FVNWLLAQSPG-OH [Compound No. 85]	0.4	41.7
[NMeY][Aib]EGTFISDYSIALDR[Aib]AQ[Aib]K([2OEGgEgE-C18 diacid])FVNWLLAQSPG-OH [Compound No. 86]	0.3	58.9
[NMeY][Aib]EGTFISDYSI[Aib]LDR[Aib]K([2OEGgEgE-C18 diacid])Q[Aib]DFVNWLLAQSPG-OH [Compound No. 87]	0.4	> 1000
YXEGTFISDYSIXLDRXAQXDFVNWLLAQSPG (N-methyl Tyr 1; Aib at 2,13,20; Lys(G5-C18 diacid) at 17; C-terminal OH) [Compound No. 88]	0.4	13.5
[NMeY][Aib]EGTFISDYSI[Aib]LDR[Aib]AQ[Aib]K([2OEGgEgE-C18 diacid])FVNWLLAQRPSSGAPPPS-NH2 [Compound No. 89]	0.4	42.7
[NMeY][Aib]EGTFISDYSI[Aib]LDR[Aib]AQ[Aib]K([2OEGgEgE-C18 diacid])FVNWLLAQSPSSGAPPPS-NH2 [Compound No. 90]	0.5	72.4
[NMeY][Aib]EGTFISDYSI[Aib]LDR[Aib]AQ[Aib]K([AEEA-AEEA-γGlu-C18 diacid])FVNWLLAQSPSSGAPPPS-NH2 [Compound No. 91]	0.5	30.9
[NMeY][Aib]EGTFISDYSI[Aib]LDR[Aib]AQ[Aib]K([AEEA-γGlu-AEEA-γGlu-C18 diacid])FVNWLLAQSPSSGAPPPS-NH2 [Compound No. 92]	0.6	36.3
[NMeY][Aib]EGTFISDYSI[Aib]LDR[Aib]AQ[Aib]K([AEEA-γGlu-γGlu-C18 diacid])FVNWLLAQSPSSGAPPPS-NH2 [Compound No. 93]	0.6	29.5
[NMeY][Aib]EGTFISDYSI[Aib]LDR[Aib]AQ[Aib]K([AEEA-AEEA-γGlu-γGlu-C17 diacid])FVNWLLAQSPSSGAPPPS-NH2 [Compound No. 94]	0.6	63.1
YXEGTFISDYSIXXDRXAQXNFVNWLLAQSPSSGAPPPS (N-methyl Tyr 1; Aib at 2,13,17,20; Lys(G5-C17 diacid) at 14; C-terminal OH) [Compound No. 95]	0.4	17.4
YXEGTFISDYSIXXDRXAQXNFVNWLLAQSPSSGAPPPS (N-methyl Tyr 1; Aib at 2,13,17,20; Lys(G5-C18 diacid) at 14; C-terminal OH) [Compound No. 96]	0.3	9.55
[NMeY][Aib]EGTFISDYSIALDR[Aib]AQ[Aib]K([AEEA-AEEA-γGlu-γGlu-C18 diacid])FVNWLLAQSPSSGAPPPS-NH2 [Compound No. 97]	0.6	52.5
[NMeY][Aib]EGTFISDYSIALDR[Aib]K([AEEA-AEEA-γGlu-γGlu-C20 diacid])Q[Aib]NFVNWLLAQSPSSGAPPPS-NH2 [Compound No. 99]	0.5	479
